# Source: patent US20240000833A1, “METHODS FOR EXPANDING A POPULATION OF ALVEOLAR MACROPHAGES IN A LONG TERM CULTURE” (Institut National de la Santé et de la Recherche Médicale, priority 2015, published 2024)
# B1: GM-CSF: cytokine growth factor for leukocytes; used as supernatant from J558L cells transfected with murine GM-CSF cDNA (protein, UniProt P01587 18-141, looked up)
# Granulocyte-macrophage …: APTRSPITVTRPWKHVEAIKEALNLLDDMPVTLNEEVEVVSNEFSFKKLTCVQTRLKIFEQGLRGNFTKLKGALNMTASYYQTYCPPTPETDCETQVTTYADFIDSLKTFLTDIPFECKKPGQK
# What was measured:
# Type in all cases: cell-based, mouse
# [1] = tested on: alveolar macrophages (AM); assay: Long-term liquid culture of alveolar macrophages in the presence of GM-CSF
# Protocol: For culture of alveolar macrophages, alveolar lavages were pooled from ten 1 mL 37° C. BAL washes (PBS, 2 mM EDTA, 2% FBS (GE Healthcare) per mouse and stored on ice. RBC lysis was then performed at room temperature (RT) for 3 minutes (RBC Lysis Buffer, Invitrogen). Cells were plated at a density of at least 1.1 million cells per 10 cm bacterial petri dish (Greiner Bio-One) or NUNC non treated 6 well plates (>0.45-5*10^6 per well) in complete medium (RPMI, 10% FCS, 1% Pen/Strep, 1% Pyruvate, 1% Glutamate) supplemented with 1-2% GM-CSF supernatant from J558L cells transfected with murine GM-CSF cDNA. Medium was partially changed every two-three days. Cells were replated only at confluency and only at least one day after medium change. To avoid cell death during detachment, cells were detached with Accutase (StemCells Technologies) and 2 mM EGTA for 15 minutes at 37° C. without agitation or pipetting and careful monitored under the microscope for the detachment process. Only after a large number of cells started to round up and float, cells were carefully detached with a p1000 pipettte.
# Cell Culture. […]
# [2] = tested on: peritoneal macrophages (PM); assay: In vitro BrdU incorporation by peritoneal macrophages after stimulation with GM-CSF; conditions: cultured PM, 3 days after stimulation, 18 h BrdU pulse
# Protocol: Peritoneal macrophages were collected by peritoneal washout using 10 mL PBS containing 2 mM EDTA (Sigma). Red cell lysis was performed (RBC Lysis Buffer, Invitrogen) and cells were filtered through a 70 um mesh before further processing. Medium changes occurred every 3-4 days.
# (§1) Cell cycle analysis. In vitro proliferation of macrophages was assessed using the Cell Proliferation ELISA (BrdU, colorimetric; Roche) according to manufacturer's instructions. In brief, 10-20 thousand freshly isolated macrophages were plated per 96 well in a tissue culture dish in complete medium (DMEM, 10% FCS, 1% Pen/Strep, 1% Pyruvate, 1% Glutamate). After macrophages had attached to the plastic, plating medium was replaced with complete medium containing the respective cytokine at indicated concentration. On day 2 after stimulation, BrdU was added to the culture and BrdU incorporation was assessed on day 3.
# [3] = tested on: alveolar macrophages (AM); assay: In vitro BrdU incorporation by alveolar macrophages after stimulation with GM-CSF; conditions: cultured AM, 3 days after stimulation, 18 h BrdU pulse
# Protocol: as §1
molecule,measurement,setting,value
B1,duration of expansion of AM in long-term liquid culture,[1],several months
same,BrdU incorporation in response to GM-CSF,[2],not PM incorprorated BrdU
same,BrdU incorporation in response to GM-CSF,[3],incorprorated BrdU
